Measurements reported in article PMC6625358 (Structure (London, England : 1993), 2017).
“And” between values parts separate entries of the source, which are not always exact repeats. Equal entries are not always repeated.

B1: Nop58p_447 (truncated Nop58p, residues 1–447) (domain or fragment, Saccharomyces cerevisiae, UniProt Q12499 1-447, looked up)
chain: MAYVLTETSAGYALLKASDKKIYKSSSLIQDLDSSDKVLKEFKIAAFSKFNSAANALEEANSIIEGKVSSQLEKLLEEIKKDKKSTLIVSETKLANAINKLGLNFNVVSDAVTLDIYRAIKEYLPELLPGMSDNDLSKMSLGLAHSIGRHKLKFSADKVDVMIIQAIALLDDLDKELNTYAMRCKEWYGWHFPELAKIVTDSVAYARIILTMGIRSKASETDLSEILPEEIEERVKTAAEVSMGTEITQTDLDNINALAEQIVEFAAYREQLSNYLSARMKAIAPNLTQLVGELVGARLIAHSGSLISLAKSPASTIQILGAEKALFRALKTKHDTPKYGLLYHASLVGQATGKNKGKIARVLAAKAAVSLRYDALAEDRDDSGDIGLESRAKVENRLSQLEGRDLRTTPKVVREAKKVEMTEARAYNADADTAKAASDSESDSDDE
B2: Rvb1/2p complex (tag-free) (complex, Saccharomyces cerevisiae)
chain 1: MVAISEVKENPGVNSSNSGAVTRTAAHTHIKGLGLDESGVAKRVEGGFVGQIEAREACGVIVDLIKAKKMSGRAILLAGGPSTGKTALALAISQELGPKVPFCPLVGSELYSVEVKKTETLMENFRRAIGLRIKETKEVYEGEVTELTPEDAENPLGGYGKTISHVIVGLKSAKGTKTLRLDPTIYESIQREKVSIGDVIYIEANTGAVKRVGRSDAYATEFDLETEEYVPLPKGEVHKKKEIVQDVTLHDLDVANARPQGGQDVISMMGQLLKPKKTEITEKLRQEVNKVVAKYIDQGVAELIPGVLFIDEVNMLDIEIFTYLNKALESNIAPVVVLASNRGMTTVRGTEDVISPHGVPPDLIDRLLIVRTLPYDKDEIRTIIERRATVERLQVESSALDLLATMGTETSLRYALQLLAPCGILAQTSNRKEIVVNDVNEAKLLFLDAKRSTKILETSANYL
chain 2: MSIQTSDPNETSDLKSLSLIAAHSHITGLGLDENLQPRPTSEGMVGQLQARRAAGVILKMVQNGTIAGRAVLVAGPPSTGKTALAMGVSQSLGKDVPFTAIAGSEIFSLELSKTEALTQAFRKSIGIKIKEETELIEGEVVEIQIDRSITGGHKQGKLTIKTTDMETIYELGNKMIDGLTKEKVLAGDVISIDKASGKITKLGRSFARSRDYDAMGADTRFVQCPEGELQKRKTVVHTVSLHEIDVINSRTQGFLALFTGDTGEIRSEVRDQINTKVAEWKEEGKAEIVPGVLFIDEVHMLDIECFSFINRALEDEFAPIVMMATNRGVSKTRGTNYKSPHGLPLDLLDRSIIITTKSYNEQEIKTILSIRAQEEEVELSSDALDLLTKTGVETSLRYSSNLISVAQQIAMKRKNNTVEVEDVKRAYLLFLDSARSVKYVQENESQYIDDQGNVQISIAKSADPDAMDTTE
B3: DII-truncated Rvb2p (deleting residues 134–234) (natural protein, Saccharomyces cerevisiae, UniProt Q12464 1-471, looked up)
chain: MSIQTSDPNETSDLKSLSLIAAHSHITGLGLDENLQPRPTSEGMVGQLQARRAAGVILKMVQNGTIAGRAVLVAGPPSTGKTALAMGVSQSLGKDVPFTAIAGSEIFSLELSKTEALTQAFRKSIGIKIKEETVVHTVSLHEIDVINSRTQGFLALFTGDTGEIRSEVRDQINTKVAEWKEEGKAEIVPGVLFIDEVHMLDIECFSFINRALEDEFAPIVMMATNRGVSKTRGTNYKSPHGLPLDLLDRSIIITTKSYNEQEIKTILSIRAQEEEVELSSDALDLLTKTGVETSLRYSSNLISVAQQIAMKRKNNTVEVEDVKRAYLLFLDSARSVKYVQENESQYIDDQGNVQISIAKSADPDAMDTTE
B4: Pih1p-Tah1p complex (His-tagged Pih1p, non-tagged Tah1p) (complex, Saccharomyces cerevisiae)
chain 1: MADFLLRPIKQRHRNEDKYVSVDAADGSVSKIEPIADFVIKTKLLSANGPEKLQDGRKVFINVCHSPLVPKPEVDFNARIVFPLIIQNEWEIPIITSCYRMDHDKKGQECYVWDCCINSDCSRWICDDIQLREILVEWCLESCEIRDSVVLCRDRIAFPKMKKKGAELPALEVLNDELHQDYKAKMHKIIEEEAGDPMSILRGRNDDGDDNNDPDDGTLPPLFPIENKISGAKIEEIDKNEIAHRNLKQAPAPAPAPHEQQEDVPEYEVKMKRFKGAAYKLRILIENKAPNSKPDRFSPSYNFAENILYINGKLSIPLPRDIVVNAADIKIFHIRKERTLYIYI
chain 2: MSQFEKQKEQGNSLFKQGLYREAVHCYDQLITAQPQNPVGYSNKAMALIKLGEYTQAIQMCQQGLRYTSTAEHVAIRSKLQYRLELAQGAVGSVQIPVVEVDELPEGYDRS
B5: Pih1p (His-tagged) (natural protein, Saccharomyces cerevisiae, UniProt P38768 1-344, looked up)
chain: B4 chain 1
B6: Pih1p 1–284 fragment (domain or fragment, Saccharomyces cerevisiae, UniProt P38768 1-284, looked up)
chain: MADFLLRPIKQRHRNEDKYVSVDAADGSVSKIEPIADFVIKTKLLSANGPEKLQDGRKVFINVCHSPLVPKPEVDFNARIVFPLIIQNEWEIPIITSCYRMDHDKKGQECYVWDCCINSDCSRWICDDIQLREILVEWCLESCEIRDSVVLCRDRIAFPKMKKKGAELPALEVLNDELHQDYKAKMHKIIEEEAGDPMSILRGRNDDGDDNNDPDDGTLPPLFPIENKISGAKIEEIDKNEIAHRNLKQAPAPAPAPHEQQEDVPEYEVKMKRFKGAAYKLRIL

Assays:
[1] = target: ScR2TP complex (Rvb1p, Rvb2p, His-Pih1p, Tah1p) (Saccharomyces cerevisiae, UniProt Q03940 1-463; Q12464 1-471; P38768 1-344; P25638 1-111); experiment: AUC
AUC = target: the molecule itself; experiment: AUC
Rvb1p (non-tagged) [2] = target: T1, Rvb1p (non-tagged) (Saccharomyces cerevisiae, UniProt Q03940 1-463); experiment: pull-down
Rvb2p (non-tagged) = Rvb2p (non-tagged) (Saccharomyces cerevisiae, UniProt Q12464 1-471); experiment: pull-down
[3] = target: B2; experiment: ITC
[4] = target: B2; experiment: label-free quantitative mass spectrometry
[5] = target: B1; experiment: cross-linking
Rvb1p (non-tagged) [6] = target: T1, Rvb1p (non-tagged); experiment: cross-linking
[7] = target: B2; experiment: AUC

Binder: B1
binding result [1]: binds

Binder: B2
binding result (AUC): binds

Binder: B3
binding result (Rvb1p (non-tagged) [2]): binds

Binder: B4
binding result (Rvb2p (non-tagged)): binds
KD of the first of two serial sites (KD^1), apparent [3]: 155 nM
KD of the second of two serial sites (KD^2), apparent [3]: 1200 nM
stoichiometry N [4]: 1.6 Pih1p per 3 Rvb1p and 3 Rvb2p and 0.5 Tah1p per 3 Rvb1p

Binder: B5
binding result [5]: binds
binding result (Rvb1p (non-tagged) [6]): binds

Binder: B6
binding result [7]: binds
